Experimental data as given in patent US9206432B2, “Sulfonylurea-responsive repressor proteins” (priority 2008, dated 2015).
Residue numbers refer to the chain shown, from its start.

B1: L6-1B03 (protein)
chain: MGSRLDKSKVINSALELLNEVGIEGLTTRKLAQKLGVEQPTLYWHVKNKRALLDALAIEMMDRHATHICPLEGESWQDFLRNNAKSMRCALLSHRDGAKVCLGTRWTEQQYEAAENMLAFLCQQGFSLENALYAVSAVRVFTLGCVLFDQESQVAKEERETPTTASMPPLLRQAWELKDHQGAEPAFLFGLELIICGLEKQLKCESGS
modifications: Sulfonylurea responsive repressor L6-1B03
B2: L6-3H02: SuR polypeptide, SEQ ID NO: 94 (protein)
chain: B1 chain with I68Y, N83T, Q110H, A113S, L171V, D179V
modifications: Sulfonylurea responsive repressor L6-3H02
B3: L6-2D07 (protein)
chain: B1 chain with A65Q, I68F, N83T, A113T, V135M, L171V
modifications: Sulfonylurea responsive repressor L6-2D07
B4: L6-5G06 (protein)
chain: B1 chain with A65Q, I68Y, A113T, M117Q, S152L, A174G
modifications: Sulfonylurea responsive repressor L6-5G06
B5: L6-4D10 (protein)
chain: B1 chain with A65Q, I68Y, Q109K, A113S
modifications: Sulfonylurea responsive repressor L6-4D10
B6: L6-5F05 (protein)
chain: B1 chain with M117Q, S152L
modifications: Sulfonylurea responsive repressor L6-5F05
B7: L6-5H06 (protein)
chain: B1 chain with A65Q, Q109K, A113T, S152L, L171V
modifications: Sulfonylurea responsive repressor L6-5H06
B8: L6-6F07 (protein)
chain: B1 chain with I68L, N83T, A113S, V135M
modifications: Sulfonylurea responsive repressor L6-6F07
B9: L6-5H12 (protein)
chain: B1 chain with I68Y, Q109K, A113T, M117Q, V135M, S152L, L171V
modifications: Sulfonylurea responsive repressor L6-5H12
B10: L6-2C09 (protein)
chain: B1 chain with A65Q, I68Y, N83T, Q110L, A113T, M117Q, V135M, S152L
modifications: Sulfonylurea responsive repressor L6-2C09
B11: L1-34: library L1 hit with reverse repressor activity (SEQ ID NO: 1206-1213) (protein)
chain: MGSRLDKSKVINSALELLNEVGIEGLTTRKLAQKLGVEQPTLYWHVKNKRALLDALAIEMADRHNTHFCPLEGESWQDFLRNAARSMRCALLSHRDGAKVYLGTARTEKQYETTENVLAFLCQQGFSLENALYAVRAVPRFTLGCVLLDQERQVAKEERETPTTDSMPPLLRQARELTDHQGAEPAFLFGLELIICGLEKQLKCESGS
modifications: rSuR L1-34

The molecules below were run on lacZ under control of the tetA promoter (PtetA) in E. coli KM3. Conditions: not given.
Assay type: cell-based

Molecule | 0.2 ppm 48 hr/Control 84 hr
B1 | 4.6
B2 | 2.8
B3 | 3.4
B4 | 4.9
B5 | 3.7
B6 | 4.1
B7 | 2.7
B8 | 2.3
B9 | 4.2
B10 | 2.6

Same assay, conditions: 0.2 ppm chlorsulfuron as inducer, M9 assay plates, 48 hr at 30° C., ImageJ colony color intensity

Molecule | 0.2 ppm 48 hr (colony color intensity, induction by chlorsulfuron)
B1 | 30.0
B2 | 15.8
B3 | 20.0
B4 | 34.4
B5 | 18.4
B6 | 22.0
B7 | 13.7
B8 | 11.6
B9 | 23.7
B10 | 13.6

Same assay, conditions: Table 6, reverse repressor hits; anhydrotetracycline (0.4 μM)

Molecule | relative β-galactosidase activity, inducer atc
B11 | 3.68

Same assay, conditions: Table 6, reverse repressor hits; chlorimuron, same plate assay format (20 ppm)

Molecule | relative β-galactosidase activity, inducer Ci
B11 | 0.43

Same assay, conditions: Table 6, reverse repressor hits; chlorsulfuron, same plate assay format (20 ppm)

Molecule | relative β-galactosidase activity, inducer Cs
B11 | 0.85

Same assay, conditions: Table 6, reverse repressor hits; ethametsulfuron, same plate assay format (20 ppm)

Molecule | relative β-galactosidase activity, inducer Es
B11 | 1.33

Same assay, conditions: Table 6, reverse repressor hits; metsulfuron, same plate assay format (20 ppm)

Molecule | relative β-galactosidase activity, inducer Ms
B11 | 1.47

Same assay, conditions: Table 6, reverse repressor hits; nicosulfuron, same plate assay format (20 ppm)

Molecule | relative β-galactosidase activity, inducer Ns
B11 | 2.91

Same assay, conditions: Table 6, reverse repressor hits; rimsulfuron, same plate assay format (20 ppm)

Molecule | relative β-galactosidase activity, inducer Rs
B11 | 2.30

Same assay, conditions: Table 6, reverse repressor hits; sulfometuron, same plate assay format (20 ppm)

Molecule | relative β-galactosidase activity, inducer Sm
B11 | 2.00

Same assay, conditions: Table 6, reverse repressor hits; thifensulfuron, same plate assay format (20 ppm)

Molecule | relative β-galactosidase activity, inducer Ts
B11 | 2.97

Same assay, conditions: Table 6, reverse repressor hits; tribenuron, same plate assay format (20 ppm)

Molecule | relative β-galactosidase activity, inducer Tb
B11 | 2.26

Same assay, conditions: no inducer, M9 assay plates, 84 hr at 30° C., ImageJ colony color intensity

Molecule | Control 84 hr (background activity, no inducer)
B1 | 6.6
B2 | 5.6
B3 | 5.8
B4 | 7.0
B5 | 5.0
B6 | 5.4
B7 | 5.1
B8 | 5.1
B9 | 5.7
B10 | 5.2
